Results on two molecules are retold here after paper PMC8247850, “The Peculiar Case of the Hyper‐thermostable Pyrimidine Nucleoside Phosphorylase from Thermus thermophilus” (Chembiochem, 2021).

Data set [1] has as its target T1, TtPyNP (Thermus thermophilus pyrimidine nucleoside phosphorylase) (Thermus thermophilus, UniProt Q5SHF9).
T1 construct: gene TTHA1771
T1 sequence (Q5SHF9 1-423): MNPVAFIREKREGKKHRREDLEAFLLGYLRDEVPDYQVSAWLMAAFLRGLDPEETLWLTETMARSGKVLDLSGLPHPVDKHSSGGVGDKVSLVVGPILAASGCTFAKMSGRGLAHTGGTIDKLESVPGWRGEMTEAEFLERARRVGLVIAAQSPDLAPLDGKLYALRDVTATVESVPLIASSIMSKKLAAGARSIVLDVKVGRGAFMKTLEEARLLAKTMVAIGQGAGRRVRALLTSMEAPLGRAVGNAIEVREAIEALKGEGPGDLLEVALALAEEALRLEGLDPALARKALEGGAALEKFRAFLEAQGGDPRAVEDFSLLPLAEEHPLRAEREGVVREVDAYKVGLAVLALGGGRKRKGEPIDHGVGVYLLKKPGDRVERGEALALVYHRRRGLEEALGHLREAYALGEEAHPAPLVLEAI
Conditions: co-substrate uridine.

Substrate in data set [2]: O=c1ccn([C@@H]2O[C@H](CO)[C@@H](O)[C@H]2O)c(=O)[nH]1
Description: UV spectral unmixing of phosphorolysis initial rates. It is filed as biochemical, Thermus thermophilus. Conditions: 80 °C, pH 7, saturating phosphate, Michaelis-Menten-like only up to 1-2 mM, inhibition at higher concentration.

The Km is the substrate concentration at which the rate is half of its maximum. One may read the kcat as the maximal rate divided by the concentration of active sites.

Turning to `O=P(O)(O)O` [phosphate], in data set [1], the “K M” value was “saturating phosphate concentrations for which typical Michaelis–Menten behavior was observed; Figure S4”.

B1: TtPyNP (Thermus thermophilus pyrimidine nucleoside phosphorylase) (Thermus thermophilus HB8) (protein)
chain: T1 sequence (Q5SHF9 1-423)
notes: tag not described in the main text
B1: in data set [2], the Km stood at 5.92 ± 8.72 mM and the kcat was 624.89 ± 823.49 s⁻¹.
